Results on one molecule are retold here after article PMC3597662.

This data set concerns the target T1, Cbp2Hb wild type (Hyperthermus butylicus, UniProt A2BLH2 1-103).
T1 sequence: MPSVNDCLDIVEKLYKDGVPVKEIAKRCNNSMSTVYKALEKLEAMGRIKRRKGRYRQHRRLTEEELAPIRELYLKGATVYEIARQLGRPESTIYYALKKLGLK
The data set is described as follows: NMR.

B1: CRISPR-1rHb 25 bp single repeat (dsDNA)
DNA 1: CTTGCAATTCTCTTTTGAGTTGTTC
DNA 2: GAACAACTCAAAAGAGAATTGCAAG
Turning to B1, the binding result is on record as “binds”.
